The source of these data is patent publication US20060257938A1, “Method of screening for drugs that block ligand binding to a lipid binding protein” (priority 2005, published 2006).

Numbering of substitutions follows the chain as printed.

B1: 49C1, 72A (protein, listed as Rattus norvegicus)
chain: AFDGTWKVDRNENYEKFMEKMGINVVKRKLGAHDNLKLTITQEGNKFTCKESSNFRNIDVVFELGVDFAYSAADGTELTGTWTMEGNKLVGKFKRVDNGKELIAVREISGNELIQTYTYEGVEAKRIFKKE
modifications: PEPTIDE (1)...(131) wild-type rat intestinal fatty acid binding protein
B2: 49M1, 72A (protein, listed as Rattus norvegicus)
chain: B1 chain with C49M
modifications: PEPTIDE (1)...(131) wild-type rat intestinal fatty acid binding protein
B3: 49D1, 72A (protein, listed as Rattus norvegicus)
chain: B1 chain with C49D
modifications: PEPTIDE (1)...(131) wild-type rat intestinal fatty acid binding protein
B4: 49L1, 72A (protein, listed as Rattus norvegicus)
chain: B1 chain with C49L
modifications: PEPTIDE (1)...(131) wild-type rat intestinal fatty acid binding protein
B5: 49Q1, 72A (protein, listed as Rattus norvegicus)
chain: B1 chain with C49Q
modifications: PEPTIDE (1)...(131) wild-type rat intestinal fatty acid binding protein
B6: 49T1, 72A (protein, listed as Rattus norvegicus)
chain: B1 chain with C49T
modifications: PEPTIDE (1)...(131) wild-type rat intestinal fatty acid binding protein
B7: 49G1, 72A (protein, listed as Rattus norvegicus)
chain: B1 chain with C49G
modifications: PEPTIDE (1)...(131) wild-type rat intestinal fatty acid binding protein
B8: 49S1, 72A (protein, listed as Rattus norvegicus)
chain: B1 chain with C49S
modifications: PEPTIDE (1)...(131) wild-type rat intestinal fatty acid binding protein
B9: 49N1, 72A (protein, listed as Rattus norvegicus)
chain: B1 chain with C49N
modifications: PEPTIDE (1)...(131) wild-type rat intestinal fatty acid binding protein
B10: 49W1, 72A (protein, listed as Rattus norvegicus)
chain: B1 chain with C49W
modifications: PEPTIDE (1)...(131) wild-type rat intestinal fatty acid binding protein
B11: 49H1, 72A (protein, listed as Rattus norvegicus)
chain: B1 chain with C49H
modifications: PEPTIDE (1)...(131) wild-type rat intestinal fatty acid binding protein
B12: 49F1, 72A (protein, listed as Rattus norvegicus)
chain: B1 chain with C49F
modifications: PEPTIDE (1)...(131) wild-type rat intestinal fatty acid binding protein
B13: 49I1, 72A (protein, listed as Rattus norvegicus)
chain: B1 chain with C49I
modifications: PEPTIDE (1)...(131) wild-type rat intestinal fatty acid binding protein
B14: 49Y1, 72A (protein, listed as Rattus norvegicus)
chain: B1 chain with C49Y
modifications: PEPTIDE (1)...(131) wild-type rat intestinal fatty acid binding protein
B15: 49P1, 72A (protein, listed as Rattus norvegicus)
chain: B1 chain with C49P
modifications: PEPTIDE (1)...(131) wild-type rat intestinal fatty acid binding protein
B16: 49Q, 72A (protein, listed as Rattus norvegicus)
chain: B1 chain with C49Q
modifications: PEPTIDE (1)...(131) wild-type rat intestinal fatty acid binding protein
B17: 49K1, 72A (protein, listed as Rattus norvegicus)
chain: B1 chain with C49K
modifications: PEPTIDE (1)...(131) wild-type rat intestinal fatty acid binding protein
B18: 49R1, 72A (protein, listed as Rattus norvegicus)
chain: B1 chain with C49R
modifications: PEPTIDE (1)...(131) wild-type rat intestinal fatty acid binding protein
B19: 102T, 72A (protein, listed as Rattus norvegicus)
chain: B1 chain with C49V, L102T
modifications: PEPTIDE (1)...(131) wild-type rat intestinal fatty acid binding protein
B20: 102V, 72A (protein, listed as Rattus norvegicus)
chain: B1 chain with C49V, L102V
modifications: PEPTIDE (1)...(131) wild-type rat intestinal fatty acid binding protein

A short description of the first test: Probe fluorescence ratio response to arachidonic acid relative to ADIFAB2. The settings on record: Arachidonic acid; response relative to ADIFAB2. It counts as binding. In outline:
(§1)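 Each fatty acid's response was expressed relative to ADIFAB2, the rI-FABP-L72A probe, as ΔR/ΔRreference. ΔR is the change in the background-corrected two-wavelength intensity ratio R=Fλ1/Fλ2 from its analyte-free baseline R0. Emission was read near about 420-480 nm for unbound and about 495-580 nm for FFA-bound probe.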
Regarding B1, the “DR/DR AA” value is −0.13.
As to B2, the “DR/DR AA” value stood at 1.36.
On the same count and under the same terms, then B3, with 0.31; and B4, with 1.76; and B5, with 0.92.
On the same count and under the same terms, under B6 stands 0.66; under B7, 1.26; under B8, 1.27.
The same measure, in the same setting: then B9, with 1.26.
As to B10, the “DR/DR AA” value is given as 0.58.
Still for that read-out and setting: under B11 stands 1.47.
Take B12: the “DR/DR AA” value is on record as 1.18.
For the molecule B13, the “DR/DR AA” value was determined as 1.80.
Take B14: the “DR/DR AA” value is given as 1.39.
Consider B15, for which the “DR/DR AA” value came out at 1.57.
With B16, the “DR/DR AA” value is 0.62.
Take B17: the “DR/DR AA” value amounted to 1.64.
Turning to B18, the “DR/DR AA” value turned out to be 1.68.

Staying with this test, now noted: arachidonic acid; response relative to ADIFAB2.
On to B19, for which the “DR/DR AA” value came out at 0.21.
For B20, the “DR/DR AA” value stood at 0.46.

Another test is described as follows: Probe fluorescence ratio response to oleic acid relative to ADIFAB2. The class given is binding. The settings on record: response relative to ADIFAB2. The procedure, abridged:
as §1
On to B1, for which the “DR/DR OA” value was −0.20.
On to B2, for which the “DR/DR OA” value was 1.30.
Consider B3, for which the “DR/DR OA” value was found to be 0.32.
B4: the “DR/DR OA” value turned out to be 1.67.
As for B5, the “DR/DR OA” value worked out at 1.20.
Take B6: the “DR/DR OA” value worked out at 0.67.
For B7, the “DR/DR OA” value was found to be 1.15.
Regarding B8, the “DR/DR OA” value came out at 1.18.
On the same count and under the same terms, then B9, with 1.11.
With B10, the “DR/DR OA” value was found to be 0.56.
For B11, the “DR/DR OA” value is on record as 1.39.
B12: the “DR/DR OA” value came to 1.14.
For the molecule B13, the “DR/DR OA” value came to 1.80.
Still for that read-out and setting: under B14 stands 1.34; under B19, 0.26; under B15, 1.40.
Same read-out and setting: then B20, with 0.57; and B16, with 0.56.
As for B17, the “DR/DR OA” value is on record as 1.51.
As for B18, the “DR/DR OA” value is reported as 1.56.

The next test is described as follows: Probe fluorescence ratio response to linoleic acid relative to ADIFAB2. It counts as binding. Conditions: response relative to ADIFAB2. In outline: as §1
Regarding B1, the “DR/DR LA” value is listed as −0.21.
On to B2, for which the “DR/DR LA” value was 1.37.
Take B3: the “DR/DR LA” value is given as 0.32.
Consider B4, for which the “DR/DR LA” value amounted to 1.81.
As for B5, the “DR/DR LA” value worked out at 1.25.
In the case of B6, the “DR/DR LA” value turned out to be 0.67.
Same read-out and setting: under B7 stands 1.29; under B8, 1.29.
Regarding B9, the “DR/DR LA” value is reported as 1.10.
Consider B10, for which the “DR/DR LA” value is recorded as 0.58.
Regarding B11, the “DR/DR LA” value was found to be 1.58.
For B12, the “DR/DR LA” value was found to be 1.14.
For B13, the “DR/DR LA” value came out at 1.84.
On to B14, for which the “DR/DR LA” value is 1.51.
The same measure, in the same setting: under B19 stands 0.26; under B15, 1.59.
Take B20: the “DR/DR LA” value is given as 0.67.
Still for that read-out and setting: then B16, with 0.58; and B17, with 1.71; and B18, with 1.75.

A further test can be described thus: Probe fluorescence ratio response to palmitic acid relative to ADIFAB2. Conditions: response relative to ADIFAB2. The class given is binding. In outline:
as §1
Regarding B1, the “DR/DR PA” value is −0.18.
Consider B2, for which the “DR/DR PA” value was 0.94.
With B3, the “DR/DR PA” value was 0.16.
As for B4, the “DR/DR PA” value is 1.00.
In the case of B5, the “DR/DR PA” value was 0.69.
In the case of B6, the “DR/DR PA” value was 0.43.
For the molecule B7, the “DR/DR PA” value is recorded as 0.64.
Take B8: the “DR/DR PA” value is 0.66.
With B9, the “DR/DR PA” value is 0.74.
Take B10: the “DR/DR PA” value came out at 0.35.
Still for that read-out and setting: under B11 stands 0.75; under B12, 0.75; under B13, 1.16.
As to B14, the “DR/DR PA” value amounted to 0.70.
Consider B19, for which the “DR/DR PA” value is on record as 0.12.
As to B15, the “DR/DR PA” value is on record as 0.76.
Regarding B20, the “DR/DR PA” value was found to be 0.35.
As to B16, the “DR/DR PA” value is on record as 0.43.
On the same count and under the same terms, then B17, with 0.80.
Take B18: the “DR/DR PA” value stood at 0.78.

A further test is described as follows: Probe fluorescence ratio response to linolenic acid relative to ADIFAB2. It counts as binding. Conditions: response relative to ADIFAB2. In outline: as §1
B1: the “DR/DR LNA” value is on record as −0.18.
In the case of B2, the “DR/DR LNA” value turned out to be 1.37.
In the case of B3, the “DR/DR LNA” value is recorded as 0.30.
The same measure, in the same setting: under B4 stands 1.77; under B5, 1.23.
Same read-out and setting: under B6 stands 0.64; under B7, 1.25; under B8, 1.34.
Regarding B9, the “DR/DR LNA” value was 1.18.
For B10, the “DR/DR LNA” value amounted to 0.58.
Still for that read-out and setting: then B11, with 1.54; and B12, with 1.18.
On the same count and under the same terms, under B13 stands 1.82; under B14, 1.44.
Take B19: the “DR/DR LNA” value came out at 0.24.
On to B15, for which the “DR/DR LNA” value was determined as 1.53.
Consider B20, for which the “DR/DR LNA” value is 0.51.
The same measure, in the same setting: then B16, with 0.55; and B17, with 1.68.
Regarding B18, the “DR/DR LNA” value stood at 1.70.
